According to US20210171621A1 (SUNSHINE GUOJIAN PHARMACEUTICAL SHANGHAI, published 2021):

T1: guinea pig IL-5 with His-tag (guinea pig, UniProt O08987 20-135)
T1 construct: Expressed transiently in HEK293E and captured from the supernatant by a murine anti-His antibody; not shown: His-tag
T1 sequence (looked up): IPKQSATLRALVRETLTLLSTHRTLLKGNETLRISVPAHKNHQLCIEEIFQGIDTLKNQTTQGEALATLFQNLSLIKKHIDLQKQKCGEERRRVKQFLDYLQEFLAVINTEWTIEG

T2: mouse IL-5 with His-tag (mouse, UniProt P04401 21-133)
T2 construct: Expressed transiently in HEK293E and captured from the supernatant by a murine anti-His antibody; not shown: His-tag
T2 sequence (looked up): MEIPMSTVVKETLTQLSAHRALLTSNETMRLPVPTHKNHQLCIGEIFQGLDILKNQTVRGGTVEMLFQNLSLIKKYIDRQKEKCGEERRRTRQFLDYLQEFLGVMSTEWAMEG

T3: rat IL-5 with His-tag (rat, UniProt Q08125 20-132)
T3 construct: Expressed transiently in HEK293E and captured from the supernatant by a murine anti-His antibody; not shown: His-tag
T3 sequence (looked up): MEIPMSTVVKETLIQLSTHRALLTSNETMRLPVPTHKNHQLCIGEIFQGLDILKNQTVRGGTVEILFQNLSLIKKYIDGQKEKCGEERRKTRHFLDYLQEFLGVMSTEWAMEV

T4: rabbit IL-5 with His-tag (rabbit, UniProt G1SL79 20-134)
T4 construct: Expressed transiently in HEK293E and captured from the supernatant by a murine anti-His antibody
T4 sequence: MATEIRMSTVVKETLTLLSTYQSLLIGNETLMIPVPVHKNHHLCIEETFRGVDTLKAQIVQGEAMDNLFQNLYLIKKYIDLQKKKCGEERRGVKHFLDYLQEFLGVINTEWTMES


Columns and labels:
[1] = target: T5, human IL-5 protein (purchased from Beijing Yiqiao Shenzhou) (human, UniProt P05113 20-134); test: SPR Biacore T200, antibody captured on Protein A/G, IL-5 as analyte
T5 construct: Bought protein
From the text: The specific experimental method was as follows: A CM5 sensor chip (GE healthcare) was activated with a Amine Coupling Kit (GE healthcare) and the Protein A/G fusion protein (Thermo Pierce) was immobilized on the chip with an lable amount of 2000 RU. FC3 (Flow cell 3) was a reference channel, and FC4 (Flow cell 4) was a sample channel.

[2] = target: T6, human IL-5-His-tag antigen (human, UniProt P05113 20-134); test: ELISA, His-tagged IL-5 captured by anti-His antibody; human
T6 construct: Made in HEK293

[3] = target: T5, human IL-5 protein (purchased from …); test: cell-based or functional assay
[4] = target: T1, guinea pig IL-5 with His-tag; test: ELISA, His-tagged IL-5 captured by anti-His antibody; guinea pig
From the text: (§1) IL-5 genes of rat, mouse, guinea pig and rabbit were synthesized and constructed into the pTT5 transient vector, respectively (All the sequences of the above genes are from http://www.uniprot.org, the mouse number is P04401, the rat number is Q08125, the guinea pig number is O08987, and the rabbit number is G1SL79), and then transiently expressed in HEK293E.

mouse IL-5 with His-tag = target: T2, mouse IL-5 with His-tag; test: ELISA, His-tagged IL-5 captured by anti-His antibody; mouse
From the text: as §1

[5] = target: T7, IL-5 mutant 90R to Alanine, with His-tag (human, UniProt P05113 20-134); test: capture ELISA: His-tagged IL-5 from HEK293E supernatant captured with murine anti-His antibody, detected with Goat-anti-Human-Fc-Specific-HRP; mean of four wells
T7 construct: Expressed transiently in HEK293E; used from the supernatant, captured by a murine anti-His antibody; not shown: His-tag

[6] = target: T8, IL-5 mutant 86C to Alanine, with His-tag (human, UniProt P05113 20-134); test: as above
T8 construct: Expressed transiently in HEK293E; used from the supernatant, captured by a murine anti-His antibody; not shown: His-tag

[7] = target: T9, IL-5 mutant 91R to Alanine, with His-tag (human, UniProt P05113 20-134); test: as above
T9 construct: Expressed transiently in HEK293E; used from the supernatant, captured by a murine anti-His antibody; not shown: His-tag

[8] = target: T10, IL-5 mutant 104L to Alanine, with His-tag (human, UniProt P05113 20-134); test: as above
T10 construct: Expressed transiently in HEK293E; used from the supernatant, captured by a murine anti-His antibody; not shown: His-tag

[9] = target: T11, IL-5 mutant 96F to Alanine, with His-tag (human, UniProt P05113 20-134); test: as above
T11 construct: Expressed transiently in HEK293E; used from the supernatant, captured by a murine anti-His antibody; not shown: His-tag

rat IL-5 with His-tag = target: T3, rat IL-5 with His-tag; test: ELISA, His-tagged IL-5 captured by anti-His antibody; rat
From the text: as §1

human IL-5-hFc [10] = target: T12, human IL-5-hFc (human, UniProt P05113 20-134); test: competition ELISA: IL-5-hFc coated, biotinylated IL-5RA-ECD-hFc as competitor
T12 construct: not shown: Fc segment of human IgG1
Procedure: (§2) After incubation for a period of time, the plate was washed and Streptavidin-HRP was added finally for color development detection.

human IL-5-hFc [11] = target: T12, human IL-5-hFc; test: blocking ELISA: plate coated with IL-5-hFc, antibody dilutions mixed with biotinylated IL-5RA-ECD-hFc (the blocked ligand), Streptavidin-HRP, OD450
Procedure: as §2

rabbit IL-5 with His-tag = target: T4, rabbit IL-5 with His-tag; test: ELISA, His-tagged IL-5 captured by anti-His antibody
From the text: as §1

Kd [1]	koff [1]	kon [1]	EC50 [4]	EC50 (mouse IL-5 with His-tag)	EC50 (rat IL-5 with His-tag)	Binder	further results
0.0136 nM	0.000156 s⁻¹	1.15e+07 M⁻¹ s⁻¹	0.0531 µg/mL	0.0618 µg/mL	0.132 µg/mL	hu39D10 (antibody, V domains shown) VH: EVQLVESGGGLVQPGGSLRLSCAVSGLSLTSNSVNWIRQAPGKGLEWVGLIWSNGDTDYNSAIKSRFTISRDTSKSTVYLQMNSLRAEDTAVYYCAREYYGYFDYWGQGTLVTVSS VL: DIQMTQSPSSLSASVGDRVTITCLASEGISSYLAWYQQKPGKAPKLLIYGANSLQTGVPSRFSGSGSATDYTLTISSLQPEDFATYYCQQSYKFPNTFGQGTKVEVKR	EC50 [2]: 0.078 µg/mL; IC50 for inhibiting IL-5-induced TF-1 cell proliferation (hu39D10) [3]: 0.0476 µg/mL; OD450 [5]: 0.499; OD450 [6]: 0.13; OD450 [7]: 0.171; OD450 [8]: 0.11; OD450 [9]: 0.456
0.013 nM	0.000196 s⁻¹	1.51e+07 M⁻¹ s⁻¹	–	–	–	chimeric antibody No. 4-6 (4-6-Chimeric) (antibody, human IgG1, V domains shown) VH: QVQLQQSGAELVRPGASVKISCKAFGYTFTNHHINWVQQRPGQGLDWIGYINPYNDYSRYNQKFKGKATLTVDKSSSTAYMELSGLTSEDSAVYYCARDYGNFWYFDVWGAGTTVTVSS VL: DIKMTQSPSSMYASLGERVTITCKASQDINSYLSWIQQKPGKSPKTLIHRADRLIDGVPSRFSGSGSGQDFSLTISSLEYEDMGIYYCLQYDDFPYTFGGGTKLEIK	IC50 for inhibiting IL-5-induced TF-1 cell proliferation (4-6-Chimeric) [3]: 0.0289 µg/mL; IC50 (human IL-5-hFc [10]): 0.98 µg/mL
–	–	–	–	–	–	control antibody 4-4-Humanized (antibody, human IgG1, V domains shown) VH: QVQLVQSGAEVKKPGASVKVSCKASGYTFTDYYINWLRQAPGQGLEWIGWIYPGSGNTKYSEKFKDRATLTVDTSTSTVYMELSSLRSEDTAVYVCVRDGYYWYFDVWGQGTLVTVSS VL: DIVMTQSPDSLAVSLGERATINCKSSQSLLNNYNQKNYLAWYQQKPGQPPKLLVYFTSTRESGVPDRFSGSGSGTDFTLTISSLQAEDVAVYFCQQHYSPPFTFGQGTKVEIK	IC50 (read off the curve) (human IL-5-hFc [11]): ~4 µg/mL
–	–	–	0.0558 µg/mL	0.0521 µg/mL	2.13 µg/mL	humanized antibody No. 4-6 (4-6-Humanized) (antibody, human IgG1, kappa, V domains shown, Human IgG1; Made in HEK293; also called 4-6-Humanized (293); 4-6-Humanized (CHO)) VH: QVQLVQSGAEVKKPGASVKVSCKASGYTFTNHHINWVRQAPGQGLEWIGYINPYNDYSRYNQKFKGRATLTVDKSTSTAYMELSSLRSEDTAVYYCARDYGNFWYFDVWGQGTLVTVSS VL: DIQMTQSPSSLSASVGDRVTITCKASQDINSYLSWIQQKPGKAPKTLIHRADRLIDGVPSRFSGSGSGQDFTLTISSLQPEDFATYYCLQYDDFPYTFGQGTKVEIKR	binding result (rabbit IL-5 with His-tag): no binding
